Residue numbers refer to the chain shown, from its start.

Assay [1] has as its target T1, full-length human CDH3 with myc-His tag, forcibly expressed on CHO cells (EXZ1501) (human, UniProt P22223 108-829).
T1 construct: Clones were selected by Western blotting with an anti-c-Myc antibody; also called CDH3 full-length expression CHO cell line (EXZ1501); CHO cells with forcible expression of CDH3; not shown: C-terminal myc-His tag from vector pEF4/myc-HisB
Put plainly: flow cytometry on CHO cells with forcible expression of CDH3.

The target of assay [2] is T2, human CDH3 (P-cadherin), endogenous, on cancer cells (human, UniProt P22223 108-829).
T2 construct: Endogenous CDH3 on NCI-H358 and other human cancer cells or tissues; also called CDH3 on NCI-H358; CDH3-expressing cancer cell line
T2 sequence (P22223 108-829 limits assumed): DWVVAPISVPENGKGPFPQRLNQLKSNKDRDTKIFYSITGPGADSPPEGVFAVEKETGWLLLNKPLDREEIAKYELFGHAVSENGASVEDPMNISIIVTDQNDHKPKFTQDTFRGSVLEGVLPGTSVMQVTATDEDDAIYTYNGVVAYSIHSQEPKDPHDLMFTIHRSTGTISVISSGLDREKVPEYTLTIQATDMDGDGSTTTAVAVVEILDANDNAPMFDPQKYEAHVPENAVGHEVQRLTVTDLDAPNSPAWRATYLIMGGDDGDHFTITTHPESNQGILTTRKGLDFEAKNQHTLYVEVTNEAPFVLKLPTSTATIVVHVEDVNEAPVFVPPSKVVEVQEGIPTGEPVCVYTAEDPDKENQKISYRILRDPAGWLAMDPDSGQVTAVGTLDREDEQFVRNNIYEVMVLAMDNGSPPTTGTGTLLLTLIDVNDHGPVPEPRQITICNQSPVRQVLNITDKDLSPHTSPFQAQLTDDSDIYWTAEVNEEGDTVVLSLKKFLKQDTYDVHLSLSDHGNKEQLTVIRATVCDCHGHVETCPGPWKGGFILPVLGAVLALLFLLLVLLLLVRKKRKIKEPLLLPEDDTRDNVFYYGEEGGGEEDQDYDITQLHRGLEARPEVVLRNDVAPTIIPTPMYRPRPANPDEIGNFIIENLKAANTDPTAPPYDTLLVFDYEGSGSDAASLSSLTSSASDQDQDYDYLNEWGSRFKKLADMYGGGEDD
The assay can be described thus: FACS competition on a CDH3-expressing cell line; competitor: Alexa488-labeled NITE BP-989 antibody.

The target in assay [3] is T2, human CDH3 (P-cadherin), endogenous, on …. Put plainly: FACS competition on NCI-H358; competitor: Alexa488-labeled NITE BP-989 antibody; IC50 relative to the antibody without drug, average DAR 0 to 8. The method, then: The influence of humanization on affinity was confirmed by carrying out a competition test using a flow cytometer (FACS). A test antibody whose dilution series had been prepared, a cell line that expressed CDH3, and a certain amount of Amaxa488-labeled antibody that was competitive with the test antibody were allowed to coexist, and the reaction was then carried out at room temperature for 1 hour. Thereafter, the reaction product was washed with a FACS solution, and FACS measurement was then carried out. […] The obtained IC50 value was defined as an index for affinity.
The influence of the average drug-to-antibody ratio (DAR) of the drug binding to the humanized antibody of the present invention on affinity was confirmed by the same competition test using FACS as that in Example 25. The antibody drug conjugate was prepared in the range of average DAR of 0 to 8 by the method described in Example 15. The DAR was quantified by the method described in Example 16.
As a cell line, NCI-H358 was used. […] By the same FACS competition test as that described in Example 25, each IC50 value was calculated as an index for affinity.

For assay [4] the target is unchanged. The assay can be described thus: flow cytometry on NCI-H358 cells, antibody at 10 ug/mL. As to the method: A cell line that would be used as a reaction target (an NCI-H358 cell line that had been confirmed to express CDH3 at a high level) was treated with 2 mM EDTA-PBS, so that the cells were removed from a culture plate, and the obtained cells were then suspended in a FACS solution to a cell density of 1×10⁶ cells/mL. This cell suspension was seeded on a 96-well plate, resulting in an amount of 50 μL/well, and the purified chimeric antibody was then added to the plate to result in a concentration of 10 μg/mL, followed by performing a reaction at 4° C. for 60 minutes. Thereafter, the reaction mixture was washed with a FACS solution (150 μL/well) two times, and 4 μg/ml AlexaFlour488-labeled anti-human IgG/goat F(ab′)₂ (Invitrogen) was then added to the resultant. The obtained mixture was reacted at 4° C. for 30 minutes. Thereafter, the cells were washed with a FACS solution two times, and was then subjected to flow cytometry.

T1 sequence (P22223 108-829): as the sequence (P22223 108-829 limits assumed) above

B1: PPAT-076-44Hd (antibody, V domains shown)
VH: QVQLVESGGGVVQPGRSLRLSCAASGFSLTSYGVHWVRQAPGKGLEWVGVIWSGGSTDYADSVKGRFTISKDNSKNTVYLQMNSLRAEDTAVYYCARNSNNGFAYWGQGTLVTVSS
VL: DIQLTQSPSSLSASVGDRVTITCRASQNIYSNLAWYQQKPGKAPKLLVYAAKNLASGVPSRFSGSGSGTDFTLTISSLQPEDFATYYCQHFYDTPWTFGQGTKVEIK
notes: also called anti-CDH3 humanized antibody (human germline framework, reshaped); humanized antibody
In the case of B1, the binding result in assay [1] and in assay [2] was “binds” each time.

B2: PPAT-076-44Hd, to which a drug is bound (DM1 conjugate) (antibody, human IgG1, V domains shown)
VH: B1 VH
VL: B1 VL
modifications: DM1 bound through Sulfo-SMCC; sites not stated
notes: Human IgG1/kappa; also called CDH3 antibody drug conjugate of PPAT-076-44Hd; drug conjugate of PPAT-076-44Hd
With B2, the binding result in assay [3] was “binds”.

B3: PPAT-076-44Hb (antibody, V domains shown)
VH: B1 VH with Q1E, V11L, R16G, G49A
VL: B1 VL with L4M
notes: also called anti-CDH3 humanized antibody (human consensus framework, reshaped)
Take B3: the binding result in assay [4] and in assay [1] was “binds” each time.

B4: PPAT-076-44Hb, to which a drug is bound (DM1 conjugate) (antibody, human IgG1, V domains shown)
VH: B1 VH with Q1E, V11L, R16G, G49A
VL: B1 VL with L4M
modifications: DM1 bound through Sulfo-SMCC; sites not stated
notes: Human IgG1/kappa; also called CDH3 antibody drug conjugate of PPAT-076-44Hb; humanized antibody drug conjugate
On to B4, for which the binding result in assay [3] was “binds”.
